From US12269880B2, “LAG3 binding peptides” (Leidos, Inc., priority 2019, dated 2025)
“And” between values parts separate entries of the source, which are not always exact repeats. Equal entries are not always repeated.

Experiments:
[1] = molecular target: T1, soluble recombinant human LAG3 (Homo sapiens, UniProt P18627); assay: Clonal phage ELISA after phage display bio-panning; type: binding; conditions: for Clonal Phase ELISA uncoated signal: uncoated (background)
T1 construct: soluble recombinant human LAG3
T1 sequence (P18627 23-450 limits assumed): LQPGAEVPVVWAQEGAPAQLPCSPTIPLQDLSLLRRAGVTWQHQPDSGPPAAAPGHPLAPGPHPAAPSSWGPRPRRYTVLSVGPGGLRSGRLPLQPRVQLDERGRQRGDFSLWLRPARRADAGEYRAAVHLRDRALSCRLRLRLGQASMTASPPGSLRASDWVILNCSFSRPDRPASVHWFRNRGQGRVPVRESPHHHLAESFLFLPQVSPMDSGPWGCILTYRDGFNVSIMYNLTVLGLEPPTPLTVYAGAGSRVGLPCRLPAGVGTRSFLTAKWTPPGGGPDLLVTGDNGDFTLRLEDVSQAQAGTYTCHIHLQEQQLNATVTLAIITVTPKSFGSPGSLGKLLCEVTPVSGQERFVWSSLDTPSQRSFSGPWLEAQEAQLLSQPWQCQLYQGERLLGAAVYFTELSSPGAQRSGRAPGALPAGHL
Excerpt: The TriCo-20™, TriCo-16™, Ph.D.-12™, and Ph.D. C7™ Phage Display Peptide Libraries (Creative Biolabs, 45-1 Ramsey Road, Shirley, NY 11967) were screened by performing several rounds of bio-panning to identify binders of soluble recombinant human LAG3.

LAG3/MHC-II interaction = molecular target: T2, LAG3/MHC-II interaction (Homo sapiens, UniProt P18627); assay: HTRF LAG3/MHC-II binding assay (Cisbio)
T2 construct: purchased Cisbio US Inc
T2 sequence (P18627 23-450 limits assumed): T1 sequence (P18627 23-450 limits assumed)
Excerpt: FIG. 2 is a graph showing the results of a homogeneous time-resolved fluorescence (HTRF) assay for peptide LAG3-11. Reference Ab-LAG3 is an anti-LAG3 antibody. OVA, the ovalbumin (OVA) peptide (ISQAVHAAHAEINEAGR, SEQ ID NO:8). “HTRF ratio” is the emission at 665 nm (acceptor)/emission at 620 nm (donor) multiplied by a factor or 10^4.
A homogeneous time-resolved fluorescence (HTRF) LAG3/MHC-II binding assay (Cisbio US Inc.) was used to measure the interaction between MHC-II and LAG3 in the presence of peptides. In this assay, the interaction between Tag1-LAG3 and Tag2-MHC-II is detected by using anti-Tag1-Terbium (HTRF donor) and anti-Tag2-XL665 (HTRF acceptor). When the donor and acceptor antibodies are brought into close proximity due to LAG3 and MHC-II binding, excitation of the donor antibody triggers fluorescent resonance energy transfer (FRET) towards the acceptor antibody, which in turn emits specifically at 665 nm. This specific signal is directly proportional to the extent of LAG3/MHC-II interaction. Thus, an agent that blocks the interaction between LAG3 and MHC-II will cause a reduction in HTRF ratio.
An anti-human LAG3 antibody (Novoprotein #GMP-A092, Lot 0331158, 500 nM) was tested in the assay at an eleven-point, serially diluted semi-log dose response curve starting at 100 nM and served as a positive control. The ovalbumin peptide was used as a negative control. Peptides were reconstituted at a concentration of 20 mM in […] and tested at an eleven-point dose response curve starting at 100 µM followed by 4-fold dilutions. […]

human LAG3/FGL1 = molecular target: T3, human LAG3/FGL1 (Homo sapiens, UniProt P18627); assay: Human LAG3/FGL1 TR-FRET binding assay (BPS Bioscience)
T3 construct: purchased BPS Bioscience
T3 sequence (P18627 23-450 limits assumed): T1 sequence (P18627 23-450 limits assumed)
Method: The peptides were tested using a human LAG3/FGL1 TR-FRET binding assay (BPS Bioscience) carried out according to the manufacturer's instructions.
Peptide stocks of LAG3-11, LAG3-42, LAG3-48, LAG3-51, LAG3-54, LAG3-56, LAG3-60 and OVA were prepared at 1 mM followed by a 1:5 dilution in plate reactions. LAG3-11 and OVA were tested at 200, 50, 13, 3, 0.8, 0.2, 0.05, and 0.01 μM. The other peptides were tested at 200, 50, 13, and 3 μM. A neutralizing anti-human LAG3 antibody (BPS Bioscience Cat. #71219) was used as a positive control.
Reaction mixes were incubated 1 hr at RT before development. After development, plate was read in a Tecan M1000 TR-FRET instrument. Percent activity was calculated as follows: % Activity=100×[(sample−minimum)/(maximum−minimum)]

[2] = LOG [Compound] M tested for peptide −4, single replicates
[3] = LOG [Compound] M tested for peptide −4.60206, single replicates
[4] = LOG [Compound] M tested for peptide −5.20412, single replicates
[5] = LOG [Compound] M tested for peptide −5.80618, single replicates
[6] = LOG [Compound] M tested for peptide −6.40824
[7] = LOG [Compound] M tested for peptide −7.0103, single replicates
[8] = LOG [Compound] M tested for peptide −7.61236, single replicates
[9] = LOG [Compound] M tested for peptide −8.21442, single replicates
[10] = LOG [Compound] M tested for peptide −8.81648, single replicates
[11] = LOG [Compound] M tested for peptide −9.41854, single replicates
[12] = LOG [Compound] M tested for peptide −10.0206
[13] = LOG [Compound] M tested for peptide −10.6227

Sequence | Clonal Phase ELISA coated signal [1] | Clonal Phase ELISA uncoated signal [1] | HTRF ratio (LAG3/MHC-II interaction; [2]) | HTRF ratio (LAG3/MHC-II interaction; [3]) | HTRF ratio (LAG3/MHC-II interaction; [4]) | HTRF ratio (LAG3/MHC-II interaction; [5]) | HTRF ratio (LAG3/MHC-II interaction; [6]) | HTRF ratio (LAG3/MHC-II interaction; [7]) | HTRF ratio (LAG3/MHC-II interaction; [8]) | HTRF ratio (LAG3/MHC-II interaction; [9]) | HTRF ratio (LAG3/MHC-II interaction; [10]) | HTRF ratio (LAG3/MHC-II interaction; [11]) | HTRF ratio (LAG3/MHC-II interaction; [12]) | HTRF ratio (LAG3/MHC-II interaction; [13]) | inhibition of the interaction between human LAG3 and FGL1 (human LAG3/FGL1)
KVWQVPQDTQHWLSPNFYSV (LAG3-51 peptide) | 0.234 | 0.076 | 3058 and 2773 and 2875 | 6649 and 6521 and 6468 | 7908 and 8071 and 8322 | 8723 and 8946 and 8748 | 9265 and 8583 and 8662 | 8098 and 9193 and 9017 | 8762 and 9360 and 9173 | 8950 and 8608 and 8357 | 8834 and 8187 and 8957 | 8867 and 8809 and 8630 | 8784 and 8779 and 8696 | 9082 and 9104 and 9298 | 
HESGSVPHPWQFFTHYVS (LAG3-60 peptide) | 0.330 | 0.091 | 2986 and 3079 | 5934 and 5959 and 5991 | 8233 and 7988 and 7918 | 8525 and 8398 and 8342 | 8614 and 8929 and 9290 | 9142 and 8745 and 8892 | 8987 and 8983 and 9320 | 9275 and 8931 and 9366 | 9059 and 9248 and 8887 | 8772 and 8594 and 9169 | 8924 and 8349 and 8904 | 8795 and 9240 and 9350 | 
FYSPNHEEYHDWNVDSSVNE (LAG3-48 peptide) | 0.227 | 0.094 | 3507 and 2809 and 3028 | 5662 and 5088 and 5724 | 8301 and 8213 and 8200 | 8663 and 9082 and 9045 | 9264 and 9194 and 9135 | 8727 and 9103 and 9142 | 8936 and 9357 and 9297 | 9082 and 9139 and 9095 | 8708 and 9153 and 8757 | 8564 and 8922 and 8442 | 8765 and 9097 and 8602 | 8663 and 8904 and 9303 | 
ACGPGSFGDCGGG (LAG3-54 peptide) | 0.417 | 0.103 | 2283 and 4122 and 3912 | 7055 and 6709 and 6833 | 8691 and 8561 and 8512 | 9156 and 9205 and 9142 | 9161 and 9048 and 8773 | 9105 and 9141 and 9004 | 8674 and 9031 and 9075 | 8996 and 8645 and 8867 | 8130 and 8918 and 8630 | 8942 and 8930 and 8755 | 8344 and 9203 and 8748 | 9100 and 9262 and 8921 | 
DWNFQQWDWKKHNHLDSHVV (LAG3-42 peptide) | 0.378 | 0.084 | 7234 and 7037 and 7142 | 8389 and 8097 and 8045 | 8629 and 8765 and 8733 | 9281 and 8905 and 8572 | 9189 and 8945 and 8784 | 9432 and 8649 and 9072 | 9209 and 8787 and 9109 | 9407 and 8205 and 9247 | 9579 and 9134 and 8703 | 9137 and 8550 and 8958 | 8860 and 8937 and 8907 | 9016 and 8914 and 9210 | 
HIQNWSYWLNQDMMNQQVWKS (LAG3-56 peptide) | 0.529 | 0.101 | 4194 and 4083 and 4373 | 6880 and 7058 and 7142 | 8218 and 8349 and 8414 | 8791 and 8658 and 8464 | 9040 and 9185 and 9082 | 8147 and 9275 and 9111 | 8935 and 9303 and 9093 | 8765 and 9591 and 9178 | 8856 (2×) and 8869 | 9050 and 9029 and 9176 | 9022 and 8887 and 8540 | 8885 and 9204 and 8617 | inhibit the interaction between human LAG3 and FGL1
ISQAVHAAHAEINEAGR (listed as Gallus gallus) [OVA peptide, reference compound] |  |  | 7154 and 8492 and 8909 | 8449 and 8472 and 8683 | 9015 and 8616 and 8579 | 9180 and 8833 and 9374 | 9189 and 8634 and 9280 | 8380 and 8654 and 8970 | 9015 and 8776 and 8568 | 9219 and 8624 and 8987 | 8684 and 8724 and 8639 | 8625 and 8396 and 8788 | 8356 and 8986 and 8457 | 8633 and 9086 and 8892 | 
